# Test results: patent US12630600B2 (MEDIMMUNE LIMITED, priority 2022, dated 2026)
# Starred links: 1 amine or outer side, 2 acyl side, 3 side chain; linkers in the order of their positions; H or OH if unused. Non-standard residues stand in square brackets, D forms with d. Groups on a side chain read outwards from the residue. No end group written: not given here. *: point of attachment. C20 diacid = O=C(O)CCCCCCCCCCCCCCCCCCC(=O)*; C18 diacid = O=C(O)CCCCCCCCCCCCCCCCC(=O)*; γGlu = O=C(O)[C@H](CCC(=O)[*:2])N[*:1]; αMeF = C[C@](N)(Cc1ccccc1)C(=O)O; AEEA = NCCOCCOCC(=O)O; Aib = CC(C)(N)C(=O)O
# How the values were obtained:
# human glucagon receptor = human glucagon receptor (human, UniProt P47871); assay: cell-based or functional assay
# human GLP-1 receptor = human GLP-1 receptor (human, UniProt P43220); assay: cell-based or functional assay
cAMP production EC50 (human glucagon receptor) [nM],cAMP production EC50 (human GLP-1 receptor) [nM],Binder
0.374,0.212,H[Aib]QGTFTSDVSK[αMeF]LDTK([AEEA-AEEA-γGlu-C20 diacid])RARDFVRWLL[Aib]TE-OH (N-terminus assumed; SMILES CC(C)C[C@H](NC(=O)[C@H](Cc1c[nH]c2ccccc12)NC(=O)[C@H](CCCNC(=N)N)NC(=O)[C@@H](NC(=O)[C@H](Cc1ccccc1)NC(=O)[C@H](CC(=O)O)NC(=O)[C@H](CCCNC(=N)N)NC(=O)[C@H](C)NC(=O)[C@H](CCCNC(=N)N)NC(=O)[C@H](CCCCNC(=O)COCCOCCNC(=O)COCCOCCNC(=O)CC[C@H](NC(=O)CCCCCCCCCCCCCCCCCCC(=O)O)C(=O)O)NC(=O)[C@@H](NC(=O)[C@H](CC(=O)O)NC(=O)[C@H](CC(C)C)NC(=O)[C@](C)(Cc1ccccc1)NC(=O)[C@H](CCCCN)NC(=O)[C@H](CO)NC(=O)[C@@H](NC(=O)[C@H](CC(=O)O)NC(=O)[C@H](CO)NC(=O)[C@@H](NC(=O)[C@H](Cc1ccccc1)NC(=O)[C@@H](NC(=O)CNC(=O)[C@H](CCC(N)=O)NC(=O)C(C)(C)NC(=O)[C@@H](N)Cc1c[nH]cn1)[C@@H](C)O)[C@@H](C)O)C(C)C)[C@@H](C)O)C(C)C)C(=O)N[C@@H](CC(C)C)C(=O)NC(C)(C)C(=O)N[C@H](C(=O)N[C@@H](CCC(=O)O)C(=O)O)[C@@H](C)O) [Peptide 492]
0.232,0.0736,H[Aib]QGTFTSDVSK[αMeF]LDTK([AEEA-AEEA-γGlu-C18 diacid])RARDFVRWLL[Aib]TE-OH (N-terminus assumed; SMILES CC(C)C[C@H](NC(=O)[C@H](Cc1c[nH]c2ccccc12)NC(=O)[C@H](CCCNC(=N)N)NC(=O)[C@@H](NC(=O)[C@H](Cc1ccccc1)NC(=O)[C@H](CC(=O)O)NC(=O)[C@H](CCCNC(=N)N)NC(=O)[C@H](C)NC(=O)[C@H](CCCNC(=N)N)NC(=O)[C@H](CCCCNC(=O)COCCOCCNC(=O)COCCOCCNC(=O)CC[C@H](NC(=O)CCCCCCCCCCCCCCCCC(=O)O)C(=O)O)NC(=O)[C@@H](NC(=O)[C@H](CC(=O)O)NC(=O)[C@H](CC(C)C)NC(=O)[C@](C)(Cc1ccccc1)NC(=O)[C@H](CCCCN)NC(=O)[C@H](CO)NC(=O)[C@@H](NC(=O)[C@H](CC(=O)O)NC(=O)[C@H](CO)NC(=O)[C@@H](NC(=O)[C@H](Cc1ccccc1)NC(=O)[C@@H](NC(=O)CNC(=O)[C@H](CCC(N)=O)NC(=O)C(C)(C)NC(=O)[C@@H](N)Cc1c[nH]cn1)[C@@H](C)O)[C@@H](C)O)C(C)C)[C@@H](C)O)C(C)C)C(=O)N[C@@H](CC(C)C)C(=O)NC(C)(C)C(=O)N[C@H](C(=O)N[C@@H](CCC(=O)O)C(=O)O)[C@@H](C)O) [Peptide 491]
0.396,0.069,H[Aib]QGTFTSDVSK[αMeF]LDTK([AEEA-AEEA-γGlu-C20 diacid])RARDFVQWLL[Aib]TE-NH2 (N-terminus assumed; SMILES CC(C)C[C@H](NC(=O)[C@H](Cc1c[nH]c2ccccc12)NC(=O)[C@H](CCC(N)=O)NC(=O)[C@@H](NC(=O)[C@H](Cc1ccccc1)NC(=O)[C@H](CC(=O)O)NC(=O)[C@H](CCCNC(=N)N)NC(=O)[C@H](C)NC(=O)[C@H](CCCNC(=N)N)NC(=O)[C@H](CCCCNC(=O)COCCOCCNC(=O)COCCOCCNC(=O)CC[C@H](NC(=O)CCCCCCCCCCCCCCCCCCC(=O)O)C(=O)O)NC(=O)[C@@H](NC(=O)[C@H](CC(=O)O)NC(=O)[C@H](CC(C)C)NC(=O)[C@](C)(Cc1ccccc1)NC(=O)[C@H](CCCCN)NC(=O)[C@H](CO)NC(=O)[C@@H](NC(=O)[C@H](CC(=O)O)NC(=O)[C@H](CO)NC(=O)[C@@H](NC(=O)[C@H](Cc1ccccc1)NC(=O)[C@@H](NC(=O)CNC(=O)[C@H](CCC(N)=O)NC(=O)C(C)(C)NC(=O)[C@@H](N)Cc1c[nH]cn1)[C@@H](C)O)[C@@H](C)O)C(C)C)[C@@H](C)O)C(C)C)C(=O)N[C@@H](CC(C)C)C(=O)NC(C)(C)C(=O)N[C@H](C(=O)N[C@@H](CCC(=O)O)C(N)=O)[C@@H](C)O) [Peptide 490]

# More lines, now with the values behind:
Binder,cAMP production EC50 (human glucagon receptor) [nM],cAMP production EC50 (human GLP-1 receptor) [nM]
H[Aib]QGTFTSDVSK[αMeF]LDTK([AEEA-AEEA-γGlu-C20 diacid])RARDFVQWLL[Aib]TE-OH (N-terminus assumed; SMILES CC(C)C[C@H](NC(=O)[C@H](Cc1c[nH]c2ccccc12)NC(=O)[C@H](CCC(N)=O)NC(=O)[C@@H](NC(=O)[C@H](Cc1ccccc1)NC(=O)[C@H](CC(=O)O)NC(=O)[C@H](CCCNC(=N)N)NC(=O)[C@H](C)NC(=O)[C@H](CCCNC(=N)N)NC(=O)[C@H](CCCCNC(=O)COCCOCCNC(=O)COCCOCCNC(=O)CC[C@H](NC(=O)CCCCCCCCCCCCCCCCCCC(=O)O)C(=O)O)NC(=O)[C@@H](NC(=O)[C@H](CC(=O)O)NC(=O)[C@H](CC(C)C)NC(=O)[C@](C)(Cc1ccccc1)NC(=O)[C@H](CCCCN)NC(=O)[C@H](CO)NC(=O)[C@@H](NC(=O)[C@H](CC(=O)O)NC(=O)[C@H](CO)NC(=O)[C@@H](NC(=O)[C@H](Cc1ccccc1)NC(=O)[C@@H](NC(=O)CNC(=O)[C@H](CCC(N)=O)NC(=O)C(C)(C)NC(=O)[C@@H](N)Cc1c[nH]cn1)[C@@H](C)O)[C@@H](C)O)C(C)C)[C@@H](C)O)C(C)C)C(=O)N[C@@H](CC(C)C)C(=O)NC(C)(C)C(=O)N[C@H](C(=O)N[C@@H](CCC(=O)O)C(=O)O)[C@@H](C)O) [Peptide 488],0.301,0.202
H[Aib]QGTFTSDVSK[αMeF]LDTK([AEEA-AEEA-γGlu-C18 diacid])RARDFVQWLL[Aib]TE-OH (N-terminus assumed; SMILES CC(C)C[C@H](NC(=O)[C@H](Cc1c[nH]c2ccccc12)NC(=O)[C@H](CCC(N)=O)NC(=O)[C@@H](NC(=O)[C@H](Cc1ccccc1)NC(=O)[C@H](CC(=O)O)NC(=O)[C@H](CCCNC(=N)N)NC(=O)[C@H](C)NC(=O)[C@H](CCCNC(=N)N)NC(=O)[C@H](CCCCNC(=O)COCCOCCNC(=O)COCCOCCNC(=O)CC[C@H](NC(=O)CCCCCCCCCCCCCCCCC(=O)O)C(=O)O)NC(=O)[C@@H](NC(=O)[C@H](CC(=O)O)NC(=O)[C@H](CC(C)C)NC(=O)[C@](C)(Cc1ccccc1)NC(=O)[C@H](CCCCN)NC(=O)[C@H](CO)NC(=O)[C@@H](NC(=O)[C@H](CC(=O)O)NC(=O)[C@H](CO)NC(=O)[C@@H](NC(=O)[C@H](Cc1ccccc1)NC(=O)[C@@H](NC(=O)CNC(=O)[C@H](CCC(N)=O)NC(=O)C(C)(C)NC(=O)[C@@H](N)Cc1c[nH]cn1)[C@@H](C)O)[C@@H](C)O)C(C)C)[C@@H](C)O)C(C)C)C(=O)N[C@@H](CC(C)C)C(=O)NC(C)(C)C(=O)N[C@H](C(=O)N[C@@H](CCC(=O)O)C(=O)O)[C@@H](C)O) [Peptide 487],0.164,0.0655
H[Aib]QGTFTSDVSK[αMeF]LDTK([AEEA-AEEA-γGlu-C20 diacid])RAQDFVQWLL[Aib]E-NH2 (N-terminus assumed; SMILES CC(C)C[C@H](NC(=O)[C@H](Cc1c[nH]c2ccccc12)NC(=O)[C@H](CCC(N)=O)NC(=O)[C@@H](NC(=O)[C@H](Cc1ccccc1)NC(=O)[C@H](CC(=O)O)NC(=O)[C@H](CCC(N)=O)NC(=O)[C@H](C)NC(=O)[C@H](CCCNC(=N)N)NC(=O)[C@H](CCCCNC(=O)COCCOCCNC(=O)COCCOCCNC(=O)CC[C@H](NC(=O)CCCCCCCCCCCCCCCCCCC(=O)O)C(=O)O)NC(=O)[C@@H](NC(=O)[C@H](CC(=O)O)NC(=O)[C@H](CC(C)C)NC(=O)[C@](C)(Cc1ccccc1)NC(=O)[C@H](CCCCN)NC(=O)[C@H](CO)NC(=O)[C@@H](NC(=O)[C@H](CC(=O)O)NC(=O)[C@H](CO)NC(=O)[C@@H](NC(=O)[C@H](Cc1ccccc1)NC(=O)[C@@H](NC(=O)CNC(=O)[C@H](CCC(N)=O)NC(=O)C(C)(C)NC(=O)[C@@H](N)Cc1c[nH]cn1)[C@@H](C)O)[C@@H](C)O)C(C)C)[C@@H](C)O)C(C)C)C(=O)N[C@@H](CC(C)C)C(=O)NC(C)(C)C(=O)N[C@@H](CCC(=O)O)C(N)=O) [Peptide 485],0.0904,0.219
H[Aib]QGTFTSDVSK[αMeF]LDLK([AEEA-AEEA-γGlu-C20 diacid])RAQDFVRWLL[Aib]E-OH (N-terminus assumed; SMILES CC(C)C[C@H](NC(=O)[C@H](CC(=O)O)NC(=O)[C@H](CC(C)C)NC(=O)[C@](C)(Cc1ccccc1)NC(=O)[C@H](CCCCN)NC(=O)[C@H](CO)NC(=O)[C@@H](NC(=O)[C@H](CC(=O)O)NC(=O)[C@H](CO)NC(=O)[C@@H](NC(=O)[C@H](Cc1ccccc1)NC(=O)[C@@H](NC(=O)CNC(=O)[C@H](CCC(N)=O)NC(=O)C(C)(C)NC(=O)[C@@H](N)Cc1c[nH]cn1)[C@@H](C)O)[C@@H](C)O)C(C)C)C(=O)N[C@@H](CCCCNC(=O)COCCOCCNC(=O)COCCOCCNC(=O)CC[C@H](NC(=O)CCCCCCCCCCCCCCCCCCC(=O)O)C(=O)O)C(=O)N[C@@H](CCCNC(=N)N)C(=O)N[C@@H](C)C(=O)N[C@@H](CCC(N)=O)C(=O)N[C@@H](CC(=O)O)C(=O)N[C@@H](Cc1ccccc1)C(=O)N[C@H](C(=O)N[C@@H](CCCNC(=N)N)C(=O)N[C@@H](Cc1c[nH]c2ccccc12)C(=O)N[C@@H](CC(C)C)C(=O)N[C@@H](CC(C)C)C(=O)NC(C)(C)C(=O)N[C@@H](CCC(=O)O)C(=O)O)C(C)C) [Peptide 486],0.166,0.42
